According to paper PMC9596428:

How the values were obtained:
[1] = target: mVenus-tagged CaMKIIα holoenzyme (mVenus-mCaMKIIα), wild type (mouse) (UniProt P11798); test: FRET or BRET; in vitro time-lapse binary-FRET (mVenus lifetime for hetero-FRET to mCherry, anisotropy for homo-FRET); V-CaMKII homogenate (15-20 nM holoenzyme) with 10 µM purified NR2B fragment in 1x kinase buffer, 1 mM DTT, 1 mM CaCl2, 1 mM ATP, 1 mM MgCl2, 5 µM calmodulin; room temperature; followed over 3 h
[2] = target: mVenus-tagged CaMKIIα K42R mutant holoenzyme (mouse) (UniProt P11798); test: as above

Substance: mCherry-tagged NR2B binding fragment (6His-mCherry-Flag-NR2B 1265-1320) (from UniProt Q13224 1265-1320) (domain or fragment)
- hetero-FRET efficiency [1]: 11.9%
- hetero-FRET efficiency [2]: 12.6%
